Test results: patent US20200317768A1 (published 2020)
Numbering of substitutions follows the chain as printed. In names and notes the source's numbering stands.

T1: cynomolgus monkey FcγRIIa1 extracellular domain, C-terminal His-tag (cynomolgus monkey)
T1 construct: also called cyno FcγRIIa1; FcgRIIa1
T1 chain: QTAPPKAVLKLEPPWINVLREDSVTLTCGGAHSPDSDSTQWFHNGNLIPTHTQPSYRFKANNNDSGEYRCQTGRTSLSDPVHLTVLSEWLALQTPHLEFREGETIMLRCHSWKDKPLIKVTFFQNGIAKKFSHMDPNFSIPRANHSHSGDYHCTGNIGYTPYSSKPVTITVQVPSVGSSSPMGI

T2: cynomolgus monkey FcγRIIa2 extracellular domain, C-terminal His-tag (cynomolgus monkey)
T2 construct: also called cyno FcγRIIa2; FcgRIIa2
T2 chain: T1 chain with P95T, T121A, I127K, A128S, K130N, D135N, R142Q

T3: cynomolgus monkey FcγRIIa3 extracellular domain, C-terminal His-tag (cynomolgus monkey)
T3 construct: also called cyno FcγRIIa3; FcgRIIa3
T3 chain: T1 chain with P95T, T121A, A128S, H133P, D135N

T4: cynomolgus monkey FcγRIIb extracellular domain, C-terminal His-tag (cynomolgus monkey)
T4 construct: also called cyno FcγRIIb; cynoFcγRIIb
T4 chain: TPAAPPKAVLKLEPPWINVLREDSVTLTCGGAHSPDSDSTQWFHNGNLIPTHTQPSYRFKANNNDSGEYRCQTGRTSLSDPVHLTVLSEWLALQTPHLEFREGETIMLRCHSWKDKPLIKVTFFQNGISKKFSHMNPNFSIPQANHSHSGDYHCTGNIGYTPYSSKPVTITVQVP

T5: cynomolgus monkey FcγRIIIaS extracellular domain, C-terminal His-tag (cynomolgus monkey, UniProt Q8SPW2 21-206 at identity 1.00))
T5 construct: also called cyno FcγRIIIaS; FcgRIIIaS
T5 chain: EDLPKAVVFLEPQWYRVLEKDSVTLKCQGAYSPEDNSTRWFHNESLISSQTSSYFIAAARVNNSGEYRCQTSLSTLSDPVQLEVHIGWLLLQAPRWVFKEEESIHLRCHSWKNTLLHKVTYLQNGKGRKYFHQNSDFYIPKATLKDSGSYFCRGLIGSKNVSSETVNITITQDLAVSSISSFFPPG

T6: Human latent myostatin (human, UniProt O14793 25-266; O14793 267-375)
T6 construct: Biotinylated in the ELISAs; also called human myostatin latent form
T6 sequence 1: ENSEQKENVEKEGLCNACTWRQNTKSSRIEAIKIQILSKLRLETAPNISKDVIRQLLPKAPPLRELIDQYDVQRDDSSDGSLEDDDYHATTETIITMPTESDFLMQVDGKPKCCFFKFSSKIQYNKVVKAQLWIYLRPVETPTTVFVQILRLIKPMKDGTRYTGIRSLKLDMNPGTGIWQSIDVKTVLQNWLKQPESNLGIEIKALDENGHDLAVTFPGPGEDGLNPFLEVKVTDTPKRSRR
T6 sequence 2: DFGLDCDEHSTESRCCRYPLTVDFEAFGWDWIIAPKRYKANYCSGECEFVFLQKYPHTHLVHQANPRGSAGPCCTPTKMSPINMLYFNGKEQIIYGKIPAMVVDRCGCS

B1: M103205H795-MY001/M103202L889-SK1 (antibody, human IgG1, kappa)
heavy: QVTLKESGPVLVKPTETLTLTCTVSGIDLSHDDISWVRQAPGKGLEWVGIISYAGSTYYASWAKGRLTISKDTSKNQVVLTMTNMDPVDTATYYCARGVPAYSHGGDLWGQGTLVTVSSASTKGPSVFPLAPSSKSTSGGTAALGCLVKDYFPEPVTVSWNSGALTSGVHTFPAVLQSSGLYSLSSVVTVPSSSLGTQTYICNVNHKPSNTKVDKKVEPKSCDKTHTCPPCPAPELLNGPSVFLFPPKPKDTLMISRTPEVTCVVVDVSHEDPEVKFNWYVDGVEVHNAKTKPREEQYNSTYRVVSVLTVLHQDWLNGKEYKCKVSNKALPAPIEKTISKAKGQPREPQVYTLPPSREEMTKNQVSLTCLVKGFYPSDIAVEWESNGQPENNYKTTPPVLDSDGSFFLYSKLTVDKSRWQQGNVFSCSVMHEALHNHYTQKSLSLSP
light: DIVMTQSPATLSLSPGERATLSCTSSQSVYHANWLSWFQQKPGQPPKLLIYWASTLAYGVPSRFSGSGSGTDFTLTISSLQPEDAATYYCAGGYGGGRYAFGQGTKVEIKRTVAAPSVFIFPPSDEQLKSGTASVVCLLNNFYPREAKVQWKVDNALQSGNSQESVTEQDSKDSTYSLSSTLTLSKADYEKHKVYACEVTHQGLSSPVTKSFNRGEC
notes: also called G236N
B2: M103205H795-SG176/M103202L889-SK1 (antibody, human IgG1, kappa)
heavy: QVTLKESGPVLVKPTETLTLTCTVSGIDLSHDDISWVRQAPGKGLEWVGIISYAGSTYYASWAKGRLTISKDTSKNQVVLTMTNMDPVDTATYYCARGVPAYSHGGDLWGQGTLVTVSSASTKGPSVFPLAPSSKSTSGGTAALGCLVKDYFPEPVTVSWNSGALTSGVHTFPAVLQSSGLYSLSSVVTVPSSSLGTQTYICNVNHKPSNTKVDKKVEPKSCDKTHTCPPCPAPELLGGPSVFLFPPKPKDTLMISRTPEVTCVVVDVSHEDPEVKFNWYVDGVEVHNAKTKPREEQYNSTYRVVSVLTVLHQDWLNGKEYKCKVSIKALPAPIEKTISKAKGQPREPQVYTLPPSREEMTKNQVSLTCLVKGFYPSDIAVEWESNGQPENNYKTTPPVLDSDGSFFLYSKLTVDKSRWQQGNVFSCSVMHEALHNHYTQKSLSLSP
light: B1 light
notes: also called N325I
B3: M103205H795-SG169/M103202L889-SK1 (antibody, human IgG1, kappa)
heavy: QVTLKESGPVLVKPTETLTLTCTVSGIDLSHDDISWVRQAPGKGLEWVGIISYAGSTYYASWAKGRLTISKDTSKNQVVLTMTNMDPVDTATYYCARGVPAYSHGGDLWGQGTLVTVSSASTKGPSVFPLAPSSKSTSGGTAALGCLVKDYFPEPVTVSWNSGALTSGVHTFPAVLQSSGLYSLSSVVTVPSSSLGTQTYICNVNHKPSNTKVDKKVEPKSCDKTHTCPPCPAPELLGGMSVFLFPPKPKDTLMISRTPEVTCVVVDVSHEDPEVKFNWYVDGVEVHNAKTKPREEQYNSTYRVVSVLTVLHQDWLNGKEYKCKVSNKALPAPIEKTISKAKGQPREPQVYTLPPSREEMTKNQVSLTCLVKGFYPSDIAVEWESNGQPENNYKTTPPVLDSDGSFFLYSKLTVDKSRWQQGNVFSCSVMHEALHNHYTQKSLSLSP
light: B1 light
notes: also called P238M
B4: M103205H795-SG170/M103202L889-SK1 (antibody, human IgG1, kappa)
heavy: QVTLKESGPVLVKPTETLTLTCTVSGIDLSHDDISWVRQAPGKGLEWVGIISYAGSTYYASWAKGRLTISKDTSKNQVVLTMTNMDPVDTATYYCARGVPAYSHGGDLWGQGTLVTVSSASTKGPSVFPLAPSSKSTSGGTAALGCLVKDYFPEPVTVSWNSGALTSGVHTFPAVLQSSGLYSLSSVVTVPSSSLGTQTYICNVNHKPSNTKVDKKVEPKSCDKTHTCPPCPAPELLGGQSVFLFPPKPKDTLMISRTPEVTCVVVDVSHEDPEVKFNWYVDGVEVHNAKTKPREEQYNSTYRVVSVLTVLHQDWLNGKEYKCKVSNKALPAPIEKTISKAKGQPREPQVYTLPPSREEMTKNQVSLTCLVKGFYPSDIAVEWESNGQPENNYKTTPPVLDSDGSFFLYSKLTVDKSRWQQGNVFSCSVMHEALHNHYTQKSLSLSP
light: B1 light
notes: also called P238Q
B5: M103205H795-SG166/M103202L889-SK1 (antibody, human IgG1, kappa)
heavy: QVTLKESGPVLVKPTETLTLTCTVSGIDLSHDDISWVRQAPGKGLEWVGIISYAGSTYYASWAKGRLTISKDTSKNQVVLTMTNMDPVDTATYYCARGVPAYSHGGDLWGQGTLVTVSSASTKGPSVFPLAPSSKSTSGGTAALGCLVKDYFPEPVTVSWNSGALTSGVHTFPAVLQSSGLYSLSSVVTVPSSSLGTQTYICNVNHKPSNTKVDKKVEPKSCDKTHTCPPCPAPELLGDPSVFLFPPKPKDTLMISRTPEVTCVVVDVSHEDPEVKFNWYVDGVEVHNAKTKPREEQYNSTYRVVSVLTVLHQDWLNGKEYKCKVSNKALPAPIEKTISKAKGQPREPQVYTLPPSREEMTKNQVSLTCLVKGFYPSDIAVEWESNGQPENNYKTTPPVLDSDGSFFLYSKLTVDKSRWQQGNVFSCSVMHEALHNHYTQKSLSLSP
light: B1 light
notes: also called G237D
B6: M103205H795-SG174/M103202L889-SK1 (antibody, human IgG1, kappa)
heavy: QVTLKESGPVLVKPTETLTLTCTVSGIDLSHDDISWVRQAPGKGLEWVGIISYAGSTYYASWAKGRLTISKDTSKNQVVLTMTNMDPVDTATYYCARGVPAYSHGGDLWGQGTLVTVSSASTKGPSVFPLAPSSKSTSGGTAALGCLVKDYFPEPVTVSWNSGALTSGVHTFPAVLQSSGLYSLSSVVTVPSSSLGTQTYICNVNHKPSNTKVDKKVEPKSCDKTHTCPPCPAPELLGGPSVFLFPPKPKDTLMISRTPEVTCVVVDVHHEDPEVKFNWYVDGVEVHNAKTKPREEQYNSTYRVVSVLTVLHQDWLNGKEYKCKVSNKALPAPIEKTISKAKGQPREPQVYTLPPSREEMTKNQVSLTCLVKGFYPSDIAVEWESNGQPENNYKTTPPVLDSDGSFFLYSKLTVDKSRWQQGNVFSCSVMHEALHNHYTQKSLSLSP
light: B1 light
notes: also called S267H
B7: M103205H795-SG179/M103202L889-SK1 (antibody, human IgG1, kappa)
heavy: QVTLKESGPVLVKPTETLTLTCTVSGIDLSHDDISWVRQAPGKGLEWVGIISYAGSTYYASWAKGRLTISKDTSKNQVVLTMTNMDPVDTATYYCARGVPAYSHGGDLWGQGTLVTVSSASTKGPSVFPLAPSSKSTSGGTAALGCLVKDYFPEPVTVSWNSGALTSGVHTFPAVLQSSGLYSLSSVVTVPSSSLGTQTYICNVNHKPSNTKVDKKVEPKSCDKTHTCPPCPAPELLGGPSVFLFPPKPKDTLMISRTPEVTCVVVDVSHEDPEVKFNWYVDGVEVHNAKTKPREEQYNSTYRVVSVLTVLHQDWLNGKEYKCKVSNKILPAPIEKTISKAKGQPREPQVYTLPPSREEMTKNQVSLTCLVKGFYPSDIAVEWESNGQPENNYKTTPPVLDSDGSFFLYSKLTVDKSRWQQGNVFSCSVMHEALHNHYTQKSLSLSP
light: B1 light
notes: also called A327I
B8: M103205H795-SG167/M103202L889-SK1 (antibody, human IgG1, kappa)
heavy: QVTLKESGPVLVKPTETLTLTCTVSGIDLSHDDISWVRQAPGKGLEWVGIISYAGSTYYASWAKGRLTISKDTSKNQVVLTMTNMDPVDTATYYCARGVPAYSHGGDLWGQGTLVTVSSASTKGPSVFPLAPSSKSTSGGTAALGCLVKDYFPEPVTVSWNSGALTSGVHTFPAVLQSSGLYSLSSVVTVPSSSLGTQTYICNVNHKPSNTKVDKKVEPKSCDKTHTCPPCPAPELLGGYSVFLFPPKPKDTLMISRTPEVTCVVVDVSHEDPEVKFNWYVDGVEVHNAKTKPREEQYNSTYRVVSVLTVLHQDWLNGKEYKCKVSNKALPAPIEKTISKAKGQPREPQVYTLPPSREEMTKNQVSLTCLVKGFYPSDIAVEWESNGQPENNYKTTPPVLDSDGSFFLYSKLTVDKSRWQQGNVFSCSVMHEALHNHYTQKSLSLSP
light: B1 light
notes: also called P238Y
B9: M103205H795-SG173/M103202L889-SK1 (antibody, human IgG1, kappa)
heavy: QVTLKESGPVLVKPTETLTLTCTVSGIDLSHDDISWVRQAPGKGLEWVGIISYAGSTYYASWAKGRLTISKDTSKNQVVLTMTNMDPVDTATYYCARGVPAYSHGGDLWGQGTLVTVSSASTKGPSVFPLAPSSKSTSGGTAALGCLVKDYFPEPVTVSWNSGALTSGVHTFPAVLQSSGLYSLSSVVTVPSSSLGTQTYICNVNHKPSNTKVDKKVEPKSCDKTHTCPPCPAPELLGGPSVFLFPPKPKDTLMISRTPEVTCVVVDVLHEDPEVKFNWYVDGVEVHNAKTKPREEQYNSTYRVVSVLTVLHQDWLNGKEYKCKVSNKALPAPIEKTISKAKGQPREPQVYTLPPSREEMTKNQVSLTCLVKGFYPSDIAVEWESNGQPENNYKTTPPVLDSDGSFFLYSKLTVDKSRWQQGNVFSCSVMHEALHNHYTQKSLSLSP
light: B1 light
notes: also called S267L
B10: M103205H795-SG178/M103202L889-SK1 (antibody, human IgG1, kappa)
heavy: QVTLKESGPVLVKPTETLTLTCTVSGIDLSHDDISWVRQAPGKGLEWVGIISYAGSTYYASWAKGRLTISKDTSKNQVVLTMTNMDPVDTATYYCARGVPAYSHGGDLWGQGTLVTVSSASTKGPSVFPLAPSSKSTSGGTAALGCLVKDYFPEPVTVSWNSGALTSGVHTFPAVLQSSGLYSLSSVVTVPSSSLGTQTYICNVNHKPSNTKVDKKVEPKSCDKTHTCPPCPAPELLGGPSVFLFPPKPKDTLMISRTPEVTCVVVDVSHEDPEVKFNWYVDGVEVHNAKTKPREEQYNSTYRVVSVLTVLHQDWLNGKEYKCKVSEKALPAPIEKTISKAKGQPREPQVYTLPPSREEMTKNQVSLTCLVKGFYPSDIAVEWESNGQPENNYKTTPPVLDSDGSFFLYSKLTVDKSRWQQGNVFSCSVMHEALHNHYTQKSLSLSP
light: B1 light
notes: also called N325E
B11: M103205H795-SG168/M103202L889-SK1 (antibody, human IgG1, kappa)
heavy: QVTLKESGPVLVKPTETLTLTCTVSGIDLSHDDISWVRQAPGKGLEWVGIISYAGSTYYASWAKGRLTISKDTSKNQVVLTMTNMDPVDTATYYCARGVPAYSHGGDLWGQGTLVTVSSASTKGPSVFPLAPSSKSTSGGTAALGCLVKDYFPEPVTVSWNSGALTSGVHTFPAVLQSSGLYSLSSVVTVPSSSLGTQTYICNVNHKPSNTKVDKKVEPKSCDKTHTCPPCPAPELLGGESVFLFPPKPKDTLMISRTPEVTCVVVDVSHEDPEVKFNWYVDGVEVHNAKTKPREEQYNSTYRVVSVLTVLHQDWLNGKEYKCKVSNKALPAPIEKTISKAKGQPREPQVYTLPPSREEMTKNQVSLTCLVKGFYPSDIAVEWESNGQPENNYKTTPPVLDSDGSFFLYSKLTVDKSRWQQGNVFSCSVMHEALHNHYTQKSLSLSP
light: B1 light
notes: also called P238E
B12: M103205H795-SG177/M103202L889-SK1 (antibody, human IgG1, kappa)
heavy: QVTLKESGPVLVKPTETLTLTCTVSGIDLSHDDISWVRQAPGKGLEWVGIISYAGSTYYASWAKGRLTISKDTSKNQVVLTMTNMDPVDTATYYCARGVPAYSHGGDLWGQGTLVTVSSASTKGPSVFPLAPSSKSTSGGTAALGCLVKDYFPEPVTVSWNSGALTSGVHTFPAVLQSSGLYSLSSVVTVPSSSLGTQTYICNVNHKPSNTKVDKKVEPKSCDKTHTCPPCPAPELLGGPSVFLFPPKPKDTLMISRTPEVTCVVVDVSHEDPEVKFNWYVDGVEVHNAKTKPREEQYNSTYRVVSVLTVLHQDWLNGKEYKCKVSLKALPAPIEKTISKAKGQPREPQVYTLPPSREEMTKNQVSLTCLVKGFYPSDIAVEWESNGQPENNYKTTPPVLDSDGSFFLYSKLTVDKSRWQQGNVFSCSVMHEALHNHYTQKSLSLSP
light: B1 light
notes: also called N325L
B13: M103205H795-SG172/M103202L889-SK1 (antibody, human IgG1, kappa)
heavy: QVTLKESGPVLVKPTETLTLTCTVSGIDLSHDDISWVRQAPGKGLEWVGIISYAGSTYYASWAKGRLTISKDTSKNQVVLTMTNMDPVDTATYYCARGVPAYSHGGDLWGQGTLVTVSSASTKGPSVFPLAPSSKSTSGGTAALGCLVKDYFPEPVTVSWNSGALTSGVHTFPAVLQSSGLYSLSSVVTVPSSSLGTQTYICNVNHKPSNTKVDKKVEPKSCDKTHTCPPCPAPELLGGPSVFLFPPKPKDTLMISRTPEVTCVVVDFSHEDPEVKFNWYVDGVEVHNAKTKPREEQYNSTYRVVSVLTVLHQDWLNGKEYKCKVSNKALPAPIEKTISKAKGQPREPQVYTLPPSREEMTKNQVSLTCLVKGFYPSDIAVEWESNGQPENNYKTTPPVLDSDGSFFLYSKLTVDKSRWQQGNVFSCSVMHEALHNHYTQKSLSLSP
light: B1 light
notes: also called V266F
B14: MS_M103205H707-SG1/M103202L802-SK1 (antibody, human IgG1, kappa, V domains shown)
VH: QVTLKESGPVLVKPTETLTLTCTVSGIDLSHYDISWVRQAPGKGLEWVGIISYAGSTYYASWAKGRLTISKDTSKNQVVLTMTNMDPVDTATYYCARGVPAYSHGGDLWGQGTLVTVSS
VL: DIVMTQSPATLSLSPGERATLSCTSSQSVYHDNWLSWFQQKPGQPPKLLIYWASTLAYGVPSRFSGSGSGTDFTLTISSLQPEDAATYYCAGGYGGGLYAFGQGTKVEIKR
notes: also called MS1032LO04-SG1; MSLO-04

Target: T1, cynomolgus monkey FcγRIIa1 …
Assay: SPR; FcgR bound per captured antibody, normalized to SG1
Description: (§1) The kinetic analysis of interactions between these antibodies and FcγR was carried out using BIACORE® T200 or BIACORE® 4000 (GE Healthcare). HBS-EP+ (GE Healthcare) was used as the running buffer, and the measurement temperature was set to 25° C. A chip produced by immobilizing Protein A. Protein A/G or mouse anti-human IgG kappa light chain (BD Biosciences) onto a Series S Sensor Chip CM4 or CM5 (GE Healthcare) by the amine-coupling method was used. […] After the measurement, the antibody captured on the chip was washed off by allowing reaction with 10 mM glycine-HCl, pH1.5 and 25 mM NaOH so that the chip was regenerated and used repeatedly. The sensorgrams obtained as measurement results were analyzed by the 1:1 Langmuir binding model using the BIACORE® Evaluation Software to calculate the binding rate constant ka (L/mol/s) and dissociation rate constant kd (l/s), and the dissociation constant KD (mol/L) was calculated from these values. […] Regarding such interactions, KD values were calculated using the following 1:1 binding model described in BIACORE® T100 Software Handbook BR1006-48 Edition AE.
(§2) The value of the amount of FcγR binding was obtained by dividing the amount of FcγR bound by the amount of each antibody captured.

Binder	amount of FcgR binding (SG1 = 100)
B1	83
B2	14
B3	17
B4	16
B5	10
B6	13
B7	19
B8	18
B9	13
B10	22
B11	21
B12	15
B13	14

Target: T2, cynomolgus monkey FcγRIIa2 …
Assay: as above
Description: as §1, §2

Binder	amount of FcgR binding (SG1 = 100)
B1	86
B2	15
B3	16
B4	15
B5	10
B6	16
B7	17
B8	14
B9	14
B10	21
B11	16
B12	15
B13	17

Target: T3, cynomolgus monkey FcγRIIa3 …
Assay: as above
Description: as §1, §2

Binder	amount of FcgR binding (SG1 = 100)
B1	62
B2	19
B3	32
B4	21
B5	17
B6	20
B7	28
B8	38
B9	21
B10	29
B11	30
B12	25
B13	27

Target: T4, cynomolgus monkey FcγRIIb extracellular …
Assay: as above
Description: as §1, §2

Binder	amount of FcgR binding (SG1 = 100)
B1	85
B2	16
B3	22
B4	18
B6	11
B7	19
B8	22
B9	12
B10	26
B11	28
B12	18
B13	16

Target: T5, cynomolgus monkey FcγRIIIaS …
Assay: as above
Description: as §1, §2

Binder	amount of FcgR binding (SG1 = 100)
B1	15
B2	20
B3	22
B4	12
B5	5
B6	15
B7	48
B8	14
B9	24
B10	36
B11	13
B12	21
B13	31

target: T6, Human latent myostatin; assay: SPR (BIACORE T200), 37 C, pH7.4, avidity condition (capture 185 RU), 1:1 fit; pH 7.4
Description: The kinetic parameters of anti-latent myostatin antibodies against human, cynomolgus monkey (cyno), and mouse latent myostatin were assessed at 37° C. at pH7.4 using a BIACORE® T200 instrument (GE Healthcare). ProA/G (Pierce) was immobilized onto all flow cells of a CM4 chip using amine coupling kit (GE Healthcare). Anti-latent myostatin antibody and analytes were prepared in ACES pH7.4 (20 mM ACES, 150 mM NaCl, 1.2 mM CaCl₂), 0.05% TWEEN® 20, 0.005% NaN₃). […] Then human, cyno, or mouse latent myostatin was injected at 3.125 to 50 nM prepared by two-fold serial dilution, followed by dissociation. The sensor surface was regenerated with 25 mM NaOH. Kinetic parameters were determined by processing and fitting the data to a 1:1 binding model using BIACORE® T200 Evaluation software, version 2.0 (GE Healthcare).
All experimental settings were the same as in Example 7, except that measurements were also performed in ACES pH5.8 buffer in addition to ACES pH7.4 condition. Some antibodies were only measured against human latent myostatin. Antibody capture level was aimed at 185 RU and 18.5 RU, for avidity and affinity assay, respectively. Kinetic parameters were determined using 1:1 Binding fitting using BIACORE® T200 Evaluation software, version 2.0 (GE Healthcare).

Binder	Kd [nM]	koff [s⁻¹]	kon [M⁻¹ s⁻¹]
B14	0.163	0.000217	1.33e+06
